19 molecules from US20200002421A1 (AbbVie / Abbott, published 2020) can be followed below.

T1: Human full length B7-H3 (human, UniProt Q5ZPR3 29-534)
T1 sequence: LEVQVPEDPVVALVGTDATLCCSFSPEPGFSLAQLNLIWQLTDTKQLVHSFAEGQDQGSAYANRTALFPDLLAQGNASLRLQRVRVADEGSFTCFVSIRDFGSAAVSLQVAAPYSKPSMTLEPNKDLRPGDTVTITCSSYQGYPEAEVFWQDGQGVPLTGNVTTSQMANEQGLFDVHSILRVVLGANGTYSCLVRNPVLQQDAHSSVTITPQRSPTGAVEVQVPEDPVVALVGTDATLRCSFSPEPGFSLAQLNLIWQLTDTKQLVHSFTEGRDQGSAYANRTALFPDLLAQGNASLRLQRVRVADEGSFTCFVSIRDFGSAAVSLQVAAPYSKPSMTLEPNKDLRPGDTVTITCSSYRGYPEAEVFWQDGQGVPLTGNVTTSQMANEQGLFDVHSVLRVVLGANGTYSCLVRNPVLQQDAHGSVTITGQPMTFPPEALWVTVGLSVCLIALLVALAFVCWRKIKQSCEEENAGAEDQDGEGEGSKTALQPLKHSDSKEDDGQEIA

B1: huAb3v2.5-ZT (antibody, human IgG1, kappa, L234A L235A, V domains shown)
VH: EVQLVQSGAEVKKPGSSVKVSCKASGYTFSSYWMHWVRQAPGQGLEWIGLIHPESGSTNYNEMFKNRATLTVDRSTSTAYMELSSLRSEDTAVYYCAGGGRLYFDYWGQGTTVTVSS
VL: DIVMTQSPLSLPVTPGEPASISCRSSQSLVHSNRDTYLRWYLQKPGQSPQLLIYKVSNRFSGVPDRFSGSGSGTDFTLKISRVEAEDVGVYYCSQSTHVPYTFGGGTKVEIKR
modifications: synthon ZT on interchain Cys
B2: huAb3v2.6-ZZ (antibody, human IgG1, kappa, L234A L235A, V domains shown)
VH: EVQLVQSGAEVKKPGSSVKVSCKASGYTFSSYWMHWVRQAPGQGLEWIGLIHPESGSTNYNEMFKNRATLTVDRSTSTAYMELSSLRSEDTAVYYCAGGGRLYFDYWGQGTTVTVSS
VL: DIVMTQSPLSLPVTPGEPASISCRSSQSLVHSNQDTYLRWYLQKPGQSPQLLIYKVSNRFSGVPDRFSGSGSGTDFTLKISRVEAEDVGVYYCSQSTHVPYTFGGGTKVEIKR
modifications: synthon ZZ on interchain Cys
B3: huAb3v2.6-TV (antibody, human IgG1, kappa, L234A L235A, V domains shown)
VH: EVQLVQSGAEVKKPGSSVKVSCKASGYTFSSYWMHWVRQAPGQGLEWIGLIHPESGSTNYNEMFKNRATLTVDRSTSTAYMELSSLRSEDTAVYYCAGGGRLYFDYWGQGTTVTVSS
VL: DIVMTQSPLSLPVTPGEPASISCRSSQSLVHSNQDTYLRWYLQKPGQSPQLLIYKVSNRFSGVPDRFSGSGSGTDFTLKISRVEAEDVGVYYCSQSTHVPYTFGGGTKVEIKR
modifications: synthon TV on interchain Cys
B4: huAb3v2.6-WD (antibody, human IgG1, kappa, L234A L235A, V domains shown)
VH: EVQLVQSGAEVKKPGSSVKVSCKASGYTFSSYWMHWVRQAPGQGLEWIGLIHPESGSTNYNEMFKNRATLTVDRSTSTAYMELSSLRSEDTAVYYCAGGGRLYFDYWGQGTTVTVSS
VL: DIVMTQSPLSLPVTPGEPASISCRSSQSLVHSNQDTYLRWYLQKPGQSPQLLIYKVSNRFSGVPDRFSGSGSGTDFTLKISRVEAEDVGVYYCSQSTHVPYTFGGGTKVEIKR
modifications: synthon WD on interchain Cys
B5: huAb3v2.5-YG (antibody, human IgG1, kappa, L234A L235A, V domains shown)
VH: EVQLVQSGAEVKKPGSSVKVSCKASGYTFSSYWMHWVRQAPGQGLEWIGLIHPESGSTNYNEMFKNRATLTVDRSTSTAYMELSSLRSEDTAVYYCAGGGRLYFDYWGQGTTVTVSS
VL: DIVMTQSPLSLPVTPGEPASISCRSSQSLVHSNRDTYLRWYLQKPGQSPQLLIYKVSNRFSGVPDRFSGSGSGTDFTLKISRVEAEDVGVYYCSQSTHVPYTFGGGTKVEIKR
modifications: synthon YG on interchain Cys
B6: huAb3v2.5-ZZ (antibody, human IgG1, kappa, L234A L235A, V domains shown)
VH: EVQLVQSGAEVKKPGSSVKVSCKASGYTFSSYWMHWVRQAPGQGLEWIGLIHPESGSTNYNEMFKNRATLTVDRSTSTAYMELSSLRSEDTAVYYCAGGGRLYFDYWGQGTTVTVSS
VL: DIVMTQSPLSLPVTPGEPASISCRSSQSLVHSNRDTYLRWYLQKPGQSPQLLIYKVSNRFSGVPDRFSGSGSGTDFTLKISRVEAEDVGVYYCSQSTHVPYTFGGGTKVEIKR
modifications: synthon ZZ on interchain Cys
B7: huAb3v2.6-CZ (antibody, human IgG1, kappa, L234A L235A, V domains shown)
VH: EVQLVQSGAEVKKPGSSVKVSCKASGYTFSSYWMHWVRQAPGQGLEWIGLIHPESGSTNYNEMFKNRATLTVDRSTSTAYMELSSLRSEDTAVYYCAGGGRLYFDYWGQGTTVTVSS
VL: DIVMTQSPLSLPVTPGEPASISCRSSQSLVHSNQDTYLRWYLQKPGQSPQLLIYKVSNRFSGVPDRFSGSGSGTDFTLKISRVEAEDVGVYYCSQSTHVPYTFGGGTKVEIKR
modifications: synthon CZ on interchain Cys
B8: huAb3v2.5-KZ (antibody, human IgG1, kappa, L234A L235A, V domains shown)
VH: EVQLVQSGAEVKKPGSSVKVSCKASGYTFSSYWMHWVRQAPGQGLEWIGLIHPESGSTNYNEMFKNRATLTVDRSTSTAYMELSSLRSEDTAVYYCAGGGRLYFDYWGQGTTVTVSS
VL: DIVMTQSPLSLPVTPGEPASISCRSSQSLVHSNRDTYLRWYLQKPGQSPQLLIYKVSNRFSGVPDRFSGSGSGTDFTLKISRVEAEDVGVYYCSQSTHVPYTFGGGTKVEIKR
modifications: synthon KZ on interchain Cys
B9: huAb3v2.5-SE (antibody, human IgG1, kappa, L234A L235A, V domains shown)
VH: EVQLVQSGAEVKKPGSSVKVSCKASGYTFSSYWMHWVRQAPGQGLEWIGLIHPESGSTNYNEMFKNRATLTVDRSTSTAYMELSSLRSEDTAVYYCAGGGRLYFDYWGQGTTVTVSS
VL: DIVMTQSPLSLPVTPGEPASISCRSSQSLVHSNRDTYLRWYLQKPGQSPQLLIYKVSNRFSGVPDRFSGSGSGTDFTLKISRVEAEDVGVYYCSQSTHVPYTFGGGTKVEIKR
modifications: synthon SE on interchain Cys
B10: huAb3v2.6-AAD (antibody, human IgG1, kappa, L234A L235A, V domains shown)
VH: EVQLVQSGAEVKKPGSSVKVSCKASGYTFSSYWMHWVRQAPGQGLEWIGLIHPESGSTNYNEMFKNRATLTVDRSTSTAYMELSSLRSEDTAVYYCAGGGRLYFDYWGQGTTVTVSS
VL: DIVMTQSPLSLPVTPGEPASISCRSSQSLVHSNQDTYLRWYLQKPGQSPQLLIYKVSNRFSGVPDRFSGSGSGTDFTLKISRVEAEDVGVYYCSQSTHVPYTFGGGTKVEIKR
modifications: synthon AAD on interchain Cys
B11: huAb3v2.6-AAA (antibody, human IgG1, kappa, L234A L235A, V domains shown)
VH: EVQLVQSGAEVKKPGSSVKVSCKASGYTFSSYWMHWVRQAPGQGLEWIGLIHPESGSTNYNEMFKNRATLTVDRSTSTAYMELSSLRSEDTAVYYCAGGGRLYFDYWGQGTTVTVSS
VL: DIVMTQSPLSLPVTPGEPASISCRSSQSLVHSNQDTYLRWYLQKPGQSPQLLIYKVSNRFSGVPDRFSGSGSGTDFTLKISRVEAEDVGVYYCSQSTHVPYTFGGGTKVEIKR
modifications: synthon AAA on interchain Cys
B12: huAb3v2.6-TX (antibody, human IgG1, kappa, L234A L235A, V domains shown)
VH: EVQLVQSGAEVKKPGSSVKVSCKASGYTFSSYWMHWVRQAPGQGLEWIGLIHPESGSTNYNEMFKNRATLTVDRSTSTAYMELSSLRSEDTAVYYCAGGGRLYFDYWGQGTTVTVSS
VL: DIVMTQSPLSLPVTPGEPASISCRSSQSLVHSNQDTYLRWYLQKPGQSPQLLIYKVSNRFSGVPDRFSGSGSGTDFTLKISRVEAEDVGVYYCSQSTHVPYTFGGGTKVEIKR
modifications: synthon TX on interchain Cys
B13: huAb3v2.6-ZT (antibody, human IgG1, kappa, L234A L235A, V domains shown)
VH: EVQLVQSGAEVKKPGSSVKVSCKASGYTFSSYWMHWVRQAPGQGLEWIGLIHPESGSTNYNEMFKNRATLTVDRSTSTAYMELSSLRSEDTAVYYCAGGGRLYFDYWGQGTTVTVSS
VL: DIVMTQSPLSLPVTPGEPASISCRSSQSLVHSNQDTYLRWYLQKPGQSPQLLIYKVSNRFSGVPDRFSGSGSGTDFTLKISRVEAEDVGVYYCSQSTHVPYTFGGGTKVEIKR
modifications: synthon ZT on interchain Cys
B14: huAb3v2.6-YY (antibody, human IgG1, kappa, L234A L235A, V domains shown)
VH: EVQLVQSGAEVKKPGSSVKVSCKASGYTFSSYWMHWVRQAPGQGLEWIGLIHPESGSTNYNEMFKNRATLTVDRSTSTAYMELSSLRSEDTAVYYCAGGGRLYFDYWGQGTTVTVSS
VL: DIVMTQSPLSLPVTPGEPASISCRSSQSLVHSNQDTYLRWYLQKPGQSPQLLIYKVSNRFSGVPDRFSGSGSGTDFTLKISRVEAEDVGVYYCSQSTHVPYTFGGGTKVEIKR
modifications: synthon YY on interchain Cys
B15: huAb3v2.5-SR (antibody, human IgG1, kappa, L234A L235A, V domains shown)
VH: EVQLVQSGAEVKKPGSSVKVSCKASGYTFSSYWMHWVRQAPGQGLEWIGLIHPESGSTNYNEMFKNRATLTVDRSTSTAYMELSSLRSEDTAVYYCAGGGRLYFDYWGQGTTVTVSS
VL: DIVMTQSPLSLPVTPGEPASISCRSSQSLVHSNRDTYLRWYLQKPGQSPQLLIYKVSNRFSGVPDRFSGSGSGTDFTLKISRVEAEDVGVYYCSQSTHVPYTFGGGTKVEIKR
modifications: synthon SR on interchain Cys
B16: huAb3v2.6-LB (antibody, human IgG1, kappa, L234A L235A, V domains shown)
VH: EVQLVQSGAEVKKPGSSVKVSCKASGYTFSSYWMHWVRQAPGQGLEWIGLIHPESGSTNYNEMFKNRATLTVDRSTSTAYMELSSLRSEDTAVYYCAGGGRLYFDYWGQGTTVTVSS
VL: DIVMTQSPLSLPVTPGEPASISCRSSQSLVHSNQDTYLRWYLQKPGQSPQLLIYKVSNRFSGVPDRFSGSGSGTDFTLKISRVEAEDVGVYYCSQSTHVPYTFGGGTKVEIKR
modifications: synthon LB on interchain Cys
B17: huAb3v2.5-XW (antibody, human IgG1, kappa, L234A L235A, V domains shown)
VH: EVQLVQSGAEVKKPGSSVKVSCKASGYTFSSYWMHWVRQAPGQGLEWIGLIHPESGSTNYNEMFKNRATLTVDRSTSTAYMELSSLRSEDTAVYYCAGGGRLYFDYWGQGTTVTVSS
VL: DIVMTQSPLSLPVTPGEPASISCRSSQSLVHSNRDTYLRWYLQKPGQSPQLLIYKVSNRFSGVPDRFSGSGSGTDFTLKISRVEAEDVGVYYCSQSTHVPYTFGGGTKVEIKR
modifications: synthon XW on interchain Cys
B18: huAb13v1-TV (antibody, human IgG1, kappa, L234A L235A, V domains shown)
VH: EVQLQESGPGLVKPSETLSLTCAVTGYSITSGYSWHWIRQFPGNGLEWMGYIHSSGSTNYNPSLKSRISISRDTSKNQFFLKLSSVTAADTAVYYCAGYDDYFEYWGQGTTVTVSS
VL: DIQMTQSPSSLSASVGDRVTITCKASQNVGFNVAWYQQKPGKSPKALIYSASYRYSGVPSRFSGSGSGTDFTLTISSLQPEDFAEYFCQQYNWYPFTFGQGTKLEIKR
modifications: synthon TV on interchain Cys
B19: huAb13v1-AAA (antibody, human IgG1, kappa, L234A L235A, V domains shown)
VH: EVQLQESGPGLVKPSETLSLTCAVTGYSITSGYSWHWIRQFPGNGLEWMGYIHSSGSTNYNPSLKSRISISRDTSKNQFFLKLSSVTAADTAVYYCAGYDDYFEYWGQGTTVTVSS
VL: DIQMTQSPSSLSASVGDRVTITCKASQNVGFNVAWYQQKPGKSPKALIYSASYRYSGVPSRFSGSGSGTDFTLTISSLQPEDFAEYFCQQYNWYPFTFGQGTKLEIKR
modifications: synthon AAA on interchain Cys

The target in this experiment is T1, Human full length B7-H3. Put plainly: cell-based or functional assay.
For the molecule B1, the “EC50 nM H1650 (in vitro tumor cell cytotoxicity)” value (“EC50 nM H1650” for short) worked out at 0.95 nM.

B2: the “EC50 nM H1650” value is 1.35 nM.

Take B3: the “EC50 nM H1650” value is 0.52 nM.

In the case of B4, the “EC50 nM H1650” value was 0.79 nM.

On to B5, for which the “EC50 nM H1650” value was determined as 0.71 nM.

Take B6: the “EC50 nM H1650” value worked out at 1.1 nM.

With B7, the “EC50 nM H1650” value worked out at 0.4 nM.

Regarding B8, the “EC50 nM H1650” value was 0.87 nM.

For B9, the “EC50 nM H1650” value amounted to 0.85 nM.

Take B10: the “EC50 nM H1650” value stood at 0.85 nM.

Consider B11, for which the “EC50 nM H1650” value came to 1.24 nM.

In the case of B12, the “EC50 nM H1650” value is 0.47 nM.

For B13, the “EC50 nM H1650” value worked out at 1.11 nM.

Take B14: the “EC50 nM H1650” value turned out to be 0.72 nM.

In the case of B15, the “EC50 nM H1650” value came out at 0.59 nM.

For B16, the “EC50 nM H1650” value is 2.07 nM.

As for B17, the “EC50 nM H1650” value amounted to 2.18 nM.

Turning to B18, the “EC50 nM H1650” value was 0.43 nM.

In the case of B19, the “EC50 nM H1650” value was found to be 0.37 nM.
